We go through two molecules from US20230203185A1 (ECO ANIMAL HEALTH, published 2023).

In general, Kd refers to the free concentration of one partner at which half of the binding sites on the other are occupied at equilibrium, for simple one-to-one binding. Higher therefore signals weaker binding.

Experiment [1] deals with T1, pCD163-SRCR1-9-huFc (porcine, UniProt Q2VL90 47-1028, limits assumed).
T1 construct: also called pCD163:SRCR1-9-Fc; pCD163SRCR1-9-Fc; not shown: human Fc (huFc)
T1 sequence: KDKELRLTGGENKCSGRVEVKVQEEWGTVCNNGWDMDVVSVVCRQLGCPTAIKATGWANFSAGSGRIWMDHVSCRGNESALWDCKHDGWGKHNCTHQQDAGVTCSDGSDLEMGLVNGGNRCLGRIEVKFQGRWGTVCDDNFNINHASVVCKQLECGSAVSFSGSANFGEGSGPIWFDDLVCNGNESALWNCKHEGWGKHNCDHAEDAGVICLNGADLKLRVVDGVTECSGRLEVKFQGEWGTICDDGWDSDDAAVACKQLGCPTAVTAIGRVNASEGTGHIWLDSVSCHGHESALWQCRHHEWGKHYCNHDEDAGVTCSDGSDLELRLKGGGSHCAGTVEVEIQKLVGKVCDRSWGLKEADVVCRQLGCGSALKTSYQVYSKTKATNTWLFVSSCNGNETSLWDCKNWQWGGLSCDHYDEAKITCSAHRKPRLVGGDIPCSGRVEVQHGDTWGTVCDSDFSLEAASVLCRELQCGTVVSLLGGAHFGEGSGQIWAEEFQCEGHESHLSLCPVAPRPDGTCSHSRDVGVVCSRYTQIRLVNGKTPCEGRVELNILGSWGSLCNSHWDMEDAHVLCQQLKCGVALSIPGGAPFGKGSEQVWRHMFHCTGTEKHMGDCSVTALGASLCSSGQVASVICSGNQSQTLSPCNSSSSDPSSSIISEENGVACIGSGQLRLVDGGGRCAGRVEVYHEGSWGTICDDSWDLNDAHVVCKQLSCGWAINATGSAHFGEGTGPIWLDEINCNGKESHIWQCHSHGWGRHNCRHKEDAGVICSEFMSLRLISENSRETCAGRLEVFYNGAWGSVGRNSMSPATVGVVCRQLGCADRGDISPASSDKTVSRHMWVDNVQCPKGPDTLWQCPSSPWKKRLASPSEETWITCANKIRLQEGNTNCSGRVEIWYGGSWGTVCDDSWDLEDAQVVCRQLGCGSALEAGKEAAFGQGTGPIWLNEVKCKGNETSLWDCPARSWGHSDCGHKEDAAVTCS
In words: SPR; lower end of the range, tied by Table 7 to VHH 012 on pCD163:SRCR1-9-Fc (1.03). The method, then:
(§1) To assess the affinity of selected purified clones to pCD163, pCD163-SRCR1-9-huFc or pCD163-SRCR4-7-huFc proteins were coated by amine coupling on a CM5 sensor ship (GE Healthcare). Surface plasmon resonance (SPR) (Biacore 3000, GE Healthcare) was used to determine the binding kinetics of selected single domain antibodies at pH7.4. Approximately 2000 RU of pCD163-SRCR1-9-huFc or pCD163-SRCR4-7-huFc, proteins at 20 or 30 µg/ml in Acetate buffer pH 5.0 or pH 5.5 were immobilized onto a CM5 chip using the standard amine coupling procedure.
(§2) 1x HBS-EP pH 7.4, were utilized as a running buffer during binding kinetic measurements. Purified VHH were injected at 3-fold dilution (300 nM; 100 nM; 33 nM; 11 nM; 3.7 nM; 1.2 nM; 0.4 nM; 0 nM), for 120 s, at a flow rate of 30 µl/min. RU levels were restored to base levels after regeneration with 10 µl of 10 mM NaOH / 1 M NaCl and 10 µl of 10 mM Glycine pH 1.5 between samples. Fitting 1:1 binding with mass transfer was applied to the set sample curves using the simultaneous fitting option of the BIAevaluation software to calculate the kinetic constants of the antibody-antigen interactions including association rate (ka), dissociation rate (kd) and affinity (KD). Curves were removed from the fitting after visual examination of the residuals and considering the value of Chi2: a minimum of 4 curves were considered for the simultaneous fitting.
(In general: Surface plasmon resonance follows binding to a sensor surface in real time, without labels.)

Experiment [2] addresses T1, pCD163-SRCR1-9-huFc. Kind of experiment: SPR; upper end of the range, tied by Table 7 to VHH 017 on pCD163:SRCR1-9-Fc (75.20). The method, then: as §1, §2

B1: VHH 012 (2C07) (VHH)
VHH: QLQLVESGGGLVQAGGSLRLSCVASGRTFSRYAMGWFRQAPGKEREFVAAIAWSTGSTYYANSVKGRFAISGDNAKNTVYLQMNSLKPEDTAVYYCAAETRYCSGFGCLDPRTYGSWGQGTQVTVSS
notes: Llama single domain antibody; also called 41(#12); VHCDR3 41(#12); not shown: tags: c-myc tag in periplasmic extract (ELISA, FACS); FLAG and His tags in purified VHH (SPR, infection assays)
As for B1, the equilibrium dissociation constant (Kd) with pCD163-SRCR1-9-huFc [1] was 1 to 75 nM.

B2: VHH 017 (3D03) (VHH)
VHH: QLQLVESGGGLVQPGGSLRLSCAASGFTLDDYTIGWFRQAPGKEREGVSCINSITSNTYYADSVKGRFTISRDNAKNTVYLQMNSLTAEDTAIYYCAADSGLFSGSSCLKYRAMRFGSWGQGTQVTVSS
notes: Llama single domain antibody; also called 29(#17); VHCDR3 29(#17); not shown: tags: c-myc tag in periplasmic extract (ELISA, FACS); FLAG and His tags in purified VHH (SPR, infection assays)
Regarding B2, the Kd with pCD163-SRCR1-9-huFc [2] fell in the range of 1 to 75 nM.
